Test results from article PMC8621594.

Experiments:
[1] = target: human C1s (human)
[2] = target: human C1s (human); remark: listed apart in the source

recombinant human C1 esterase inhibitor (rhC1INH) from Chinese hamster ovary (CHO) cells, sequence (P05155 23-500): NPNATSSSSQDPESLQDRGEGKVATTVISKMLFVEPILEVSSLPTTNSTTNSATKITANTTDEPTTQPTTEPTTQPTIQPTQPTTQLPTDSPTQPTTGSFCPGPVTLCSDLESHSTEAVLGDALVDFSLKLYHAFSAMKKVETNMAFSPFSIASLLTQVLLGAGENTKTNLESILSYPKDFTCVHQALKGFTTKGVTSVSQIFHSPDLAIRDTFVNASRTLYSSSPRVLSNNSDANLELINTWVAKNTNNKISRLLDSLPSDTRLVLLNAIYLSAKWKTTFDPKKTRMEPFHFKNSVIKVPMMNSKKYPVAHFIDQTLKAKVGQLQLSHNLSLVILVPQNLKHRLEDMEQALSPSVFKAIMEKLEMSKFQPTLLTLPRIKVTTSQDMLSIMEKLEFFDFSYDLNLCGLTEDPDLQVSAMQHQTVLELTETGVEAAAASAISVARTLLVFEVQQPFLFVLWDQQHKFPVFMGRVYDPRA

## recombinant human C1 esterase inhibitor (rhC1INH) from Chinese hamster ovary (CHO) cells (from UniProt P05155 23-500) (natural protein)
[1]
  Biological Activity, U/mL: inhibition of the C1s subunit, chromogenic method (TECHNOCHROM C1-INH Kit): 175 U/mL
  Specific Activity, U/mg: inhibition of the C1s subunit, chromogenic method (TECHNOCHROM C1-INH Kit): 9.5 U/mg
[2]
  IC50 of the inhibition of human serum complement (lysis of chicken erythrocytes), rhC1INH 0.0099 to 20.25 IU/mL; printed as activity against human C1-esterase in the blood serum: 1.85 IU/mL
